Laboratory results reported in article PMC7367873, “Dissecting the sequence determinants for dephosphorylation by the catalytic subunits of phosphatases PP1 and PP2A” (Nature Communications, 2020).

B1: ARHGEF7 (protein, UniProt Q14155 1-803, looked up)
Rho guanine nucleotide …: MNSAEQTVTWLITLGVLESPKKTISDPEGFLQASLKDGVVLCRLLERLLPGTIEKVYPEPRSESECLSNIREFLRGCGASLRLELLFPPSQPPQHLVTTILLSASTFDANDLYQGQNFNKVLSSLVTLNKVTADIGLGSDSVCARPSSHRIKSFDSLGSQSLHTRTSKLFQGQYRSLDMTDNSNNQLVVRAKFNFQQTNEDELSFSKGDVIHVTRVEEGGWWEGTLNGRTGWFPSNYVREVKASEKPVSPKSGTLKSPPKGFDTTAINKSYYNVVLQNILETENEYSKELQTVLSTYLRPLQTSEKLSSANISYLMGNLEEICSFQQMLVQSLEECTKLPEAQQRVGGCFLNLMPQMKTLYLTYCANHPSAVNVLTEHSEELGEFMETKGASSPGILVLTTGLSKPFMRLDKYPTLLKELERHMEDYHTDRQDIQKSMAAFKNLSAQCQEVRKRKELELQILTEAIRNWEGDDIKTLGNVTYMSQVLIQCAGSEEKNERYLLLFPNVLLMLSASPRMSGFIYQGKLPTTGMTITKLEDSENHRNAFEISGSMIERILVSCNNQQDLQEWVEHLQKQTKVTSVGNPTIKPHSVPSHTLPSHPVTPSSKHADSKPAPLTPAYHTLPHPSHHGTPHTTINWGPLEPPKTPKPWSLSCLRPAPPLRPSAALCYKEDLSKSPKTMKKLLPKRKPERKPSDEEFASRKSTAALEEDAQILKVIEAYCTSAKTRQTLNSTWQGTDLMHNHVLADDDQPSLDSLGRRSSLSRLEPSDLSEDSDYDSIWTAHSYRMGSTSRKSCCSYISHQN
B2: SKIV2L2 (protein, UniProt P42285 2-1042, looked up)
Exosome RNA helicase MTR4: ADAFGDELFSVFEGDSTTAAGTKKDKEKDKGKWKGPPGSADKAGKRFDGKLQSESTNNGKNKRDVDFEGTDEPIFGKKPRIEESITEDLSLADLMPRVKVQSVETVEGCTHEVALPAEEDYLPLKPRVGKAAKEYPFILDAFQREAIQCVDNNQSVLVSAHTSAGKTVCAEYAIALALREKQRVIFTSPIKALSNQKYREMYEEFQDVGLMTGDVTINPTASCLVMTTEILRSMLYRGSEVMREVAWVIFDEIHYMRDSERGVVWEETIILLPDNVHYVFLSATIPNARQFAEWICHLHKQPCHVIYTDYRPTPLQHYIFPAGGDGLHLVVDENGDFREDNFNTAMQVLRDAGDLAKGDQKGRKGGTKGPSNVFKIVKMIMERNFQPVIIFSFSKKDCEAYALQMTKLDFNTDEEKKMVEEVFSNAIDCLSDEDKKLPQVEHVLPLLKRGIGIHHGGLLPILKETIEILFSEGLIKALFATETFAMGINMPARTVLFTNARKFDGKDFRWISSGEYIQMSGRAGRRGMDDRGIVILMVDEKMSPTIGKQLLKGSADPLNSAFHLTYNMVLNLLRVEEINPEYMLEKSFYQFQHYRAIPGVVEKVKNSEEQYNKIVIPNEESVVIYYKIRQQLAKLGKEIEEYIHKPKYCLPFLQPGRLVKVKNEGDDFGWGVVVNFSKKSNVKPNSGELDPLYVVEVLLRCSKESLKNSATEAAKPAKPDEKGEMQVVPVLVHLLSAISSVRLYIPKDLRPVDNRQSVLKSIQEVQKRFPDGIPLLDPIDDMGIQDQGLKKVIQKVEAFEHRMYSHPLHNDPNLETVYTLCEKKAQIAIDIKSAKRELKKARTVLQMDELKCRKRVLRRLGFATSSDVIEMKGRVACEISSADELLLTEMMFNGLFNDLSAEQATALLSCFVFQENSSEMPKLTEQLAGPLRQMQECAKRIAKVSAEAKLEIDEETYLSSFKPHLMDVVYTWATGATFAHICKMTDVFEGSIIRCMRRLEELLRQMCQAAKAIGNTELENKFAEGITKIKRDIVFAASLYL
B3: ZCCHC8 (protein, UniProt Q6NZY4 2-707, looked up)
Zinc finger CCHC …: AAEVYFGDLELFEPFDHPEESIPKPVHTRFKDDDGDEEDENGVGDAELRERLRQCEETIEQLRAENQELKRKLNILTRPSGILVNDTKLDGPILQILFMNNAISKQYHQEIEEFVSNLVKRFEEQQKNDVEKTSFNLLPQPSSIVLEEDHKVEESCAIKNNKEAFSVVGSVLYFTNFCLDKLGQPLLNENPQLSEGWEIPKYHQVFSHIVSLEGQEIQVKAKRPKPHCFNCGSEEHQMKDCPMPRNAARISEKRKEYMDACGEANNQNFQQRYHAEEVEERFGRFKPGVISEELQDALGVTDKSLPPFIYRMRQLGYPPGWLKEAELENSGLALYDGKDGTDGETEVGEIQQNKSVTYDLSKLVNYPGFNISTPRGIPDEWRIFGSIPMQACQQKDVFANYLTSNFQAPGVKSGNKRSSSHSSPGSPKKQKNESNSAGSPADMELDSDMEVPHGSQSSESFQFQPPLPPDTPPLPRGTPPPVFTPPLPKGTPPLTPSDSPQTRTASGAVDEDALTLEELEEQQRRIWAALEQAESVNSDSDVPVDTPLTGNSVASSPCPNELDLPVPEGKTSEKQTLDEPEVPEIFTKKSEAGHASSPDSEVTSLCQKEKAELAPVNTEGALLDNGSVVPNCDISNGGSQKLFPADTSPSTATKIHSPIPDMSKFATGITPFEFENMAESTGMYLRIRSLLKNSPRNQQKNKKASE
B4: PDLIM5 (protein, UniProt Q96HC4 2-596, looked up)
PDZ and LIM domain protein 5: SNYSVSLVGPAPWGFRLQGGKDFNMPLTISSLKDGGKAAQANVRIGDVVLSIDGINAQGMTHLEAQNKIKGCTGSLNMTLQRASAAPKPEPVPVQKGEPKEVVKPVPITSPAVSKVTSTNNMAYNKAPRPFGSVSSPKVTSIPSPSSAFTPAHATTSSHASPSPVAAVTPPLFAASGLHANANLSADQSPSALSAGKTAVNVPRQPTVTSVCSETSQELAEGQRRGSQGDSKQQNGPPRKHIVERYTEFYHVPTHSDASKKRLIEDTEDWRPRTGTTQSRSFRILAQITGTEHLKESEADNTKKANNSQEPSPQLASSVASTRSMPESLDSPTSGRPGVTSLTAAAAFKPVGSTGVIKSPSWQRPNQGVPSTGRISNSATYSGSVAPANSALGQTQPSDQDTLVQRAEHIPAGKRTPMCAHCNQVIRGPFLVALGKSWHPEEFNCAHCKNTMAYIGFVEEKGALYCELCYEKFFAPECGRCQRKILGEVISALKQTWHVSCFVCVACGKPIRNNVFHLEDGEPYCETDYYALFGTICHGCEFPIEAGDMFLEALGYTWHDTCFVCSVCCESLEGQTFFSKKDKPLCKKHAHSVNF
B5: SHCBP1 (protein, UniProt Q8NEM2 2-672, looked up)
SHC SH2 domain-binding …: ADGSLTGGGLEAAAMAPERMGWAVEQELASLEKGLFQDEDSCSDCSYRDKPGSSLQSFMPEGKTFFPEIFQTNQLLFYERFRAYQDYILADCKASEVQEFTAEFLEKVLEPSGWRAVWHTNVFKVLVEITDVDFAALKAVVRLAEPYLCDSQVSTFTMECMKELLDLKEHRLPLQELWVVFDDSGVFDQTALAIEHVRFFYQNIWRSWDEEEEDEYDYFVRCVEPRLRLHYDILEDRVPSGLIVDYHNLLSQCEESYRKFLNLRSSLSNCNSDSEQENISMVEGLKLYSEMEQLKQKLKLIENPLLRYVFGYQKNSNIQAKGVRSSGQKITHVVSSTMMAGLLRSLLTDRLCQEPGEEEREIQFHSDPLSAINACFEGDTVIVCPGHYVVHGTFSIADSIELEGYGLPDDIVIEKRGKGDTFVDCTGADIKISGIKFVQHDAVEGILIVHRGKTTLENCVLQCETTGVTVRTSAEFLMKNSDLYGAKGAGIEIYPGSQCTLSDNGIHHCKEGILIKDFLDEHYDIPKISMVNNIIHNNEGYGVVLVKPTIFSDLQENAEDGTEENKALKIQTSGEPDVAERVDLEELIECATGKMELCARTDPSEQVEGNCEIVNELIAASTQKGQIKKKRLSELGITQADDNLMSQEMFVGIVGNQFKWNGKGSFGTFLF
B6: FAM53B (protein, UniProt Q14153 1-422, looked up)
Protein FAM53B: MVMVLSESLSTRGADSIACGTFSRELHTPKKMSQGPTLFSCGIMENDRWRDLDRKCPLQIDQPSTSIWECLPEKDSSLWHREAVTACAVTSLIKDLSISDHNGNPSAPPSKRQCRSLSFSDEMSSCRTSWRPLGSKVWTPVEKRRCYSGGSVQRYSNGFSTMQRSSSFSLPSRANVLSSPCDQAGLHHRFGGQPCQGVPGSAPCGQAGDTWSPDLHPVGGGRLDLQRSLSCSHEQFSFVEYCPPSANSTPASTPELARRSSGLSRSRSQPCVLNDKKVGVKRRRPEEVQEQRPSLDLAKMAQNCQTFSSLSCLSAGTEDCGPQSPFARHVSNTRAWTALLSASGPGGRTPAGTPVPEPLPPSFDDHLACQEDLSCEESDSCALDEDCGRRAEPAAAWRDRGAPGNSLCSLDGELDIEQIEKN
B7: TSC1 (protein, UniProt Q92574 1-1164, looked up)
Hamartin: MAQQANVGELLAMLDSPMLGVRDDVTAVFKENLNSDRGPMLVNTLVDYYLETSSQPALHILTTLQEPHDKHLLDRINEYVGKAATRLSILSLLGHVIRLQPSWKHKLSQAPLLPSLLKCLKMDTDVVVLTTGVLVLITMLPMIPQSGKQHLLDFFDIFGRLSSWCLKKPGHVAEVYLVHLHASVYALFHRLYGMYPCNFVSFLRSHYSMKENLETFEEVVKPMMEHVRIHPELVTGSKDHELDPRRWKRLETHDVVIECAKISLDPTEASYEDGYSVSHQISARFPHRSADVTTSPYADTQNSYGCATSTPYSTSRLMLLNMPGQLPQTLSSPSTRLITEPPQATLWSPSMVCGMTTPPTSPGNVPPDLSHPYSKVFGTTAGGKGTPLGTPATSPPPAPLCHSDDYVHISLPQATVTPPRKEERMDSARPCLHRQHHLLNDRGSEEPPGSKGSVTLSDLPGFLGDLASEEDSIEKDKEEAAISRELSEITTAEAEPVVPRGGFDSPFYRDSLPGSQRKTHSAASSSQGASVNPEPLHSSLDKLGPDTPKQAFTPIDLPCGSADESPAGDRECQTSLETSIFTPSPCKIPPPTRVGFGSGQPPPYDHLFEVALPKTAHHFVIRKTEELLKKAKGNTEEDGVPSTSPMEVLDRLIQQGADAHSKELNKLPLPSKSVDWTHFGGSPPSDEIRTLRDQLLLLHNQLLYERFKRQQHALRNRRLLRKVIKAAALEEHNAAMKDQLKLQEKDIQMWKVSLQKEQARYNQLQEQRDTMVTKLHSQIRQLQHDREEFYNQSQELQTKLEDCRNMIAELRIELKKANNKVCHTELLLSQVSQKLSNSESVQQQMEFLNRQLLVLGEVNELYLEQLQNKHSDTTKEVEMMKAAYRKELEKNRSHVLQQTQRLDTSQKRILELESHLAKKDHLLLEQKKYLEDVKLQARGQLQAAESRYEAQKRITQVFELEILDLYGRLEKDGLLKKLEEEKAEAAEAAEERLDCCNDGCSDSMVGHNEEASGHNGETKTPRPSSARGSSGSRGGGGSSSSSSELSTPEKPPHQRAGPFSSRWETTMGEASASIPTTVGSLPSSKSFLGMKARELFRNKSESQCDEDGMTSSLSESLKTELGKDLGVEAKIPLNLDGPHPSPPTPDSVGQLHIMDYNETHHEHS

What follows are molecules tested on GFP-14-3-3β and its binding proteins (assay: GFP-14-3-3β co-IP with LC-MS/MS label-free quantification, untreated versus PP1c-treated). Conditions: pairwise comparison PP1 vs untreated, student's t-test; 3 replicates each; LC-MS/MS label-free quantification.
Parameters: species or system human

Row | Difference (log2), PP1 vs untreated | Molecule
1 | -3.042 log2 | B1
2 | -3.184 log2 | B2
3 | -3.239 log2 | B3
4 | -3.258 log2 | B4
5 | -3.298 log2 | B5
6 | -3.06 log2 | B6
7 | -3.2926 log2 | B7

The molecules below were run on GFP-14-3-3β (assay: GFP-14-3-3β co-IP with LC-MS/MS, untreated GFP-14-3-3β versus GFP control (14-3-3 interactome)). Conditions: pairwise comparison untreated GFP-14-3-3β vs GFP, student's t-test; 3 replicates each; LC-MS/MS label-free quantification.
Type: binding, human

Row | Molecule | Difference (log2), untreated vs GFP
8 | B1 | 2.997 log2
9 | B2 | 4.62 log2
10 | B3 | 4.409 log2
11 | B4 | 1.189 log2
12 | B5 | 4.099 log2
13 | B6 | 2.4159 log2
14 | B7 | 2.521 log2
